Reference: patent US20230272067A1 (HUAHUI HEALTH, published 2023)
Numbering of substitutions follows the chain as printed. Names and notes keep the numbering of the source. Values belong to the binder of their own block, whether it stands above or below them.

Legend:
[1] = target: T1, extracellular domain (ECD) of human TIGIT (human, UniProt Q495A1 22-141, biotinylated (site not stated)); assay: SPR (Biacore T200), multi-cycle kinetics, FIG. 11 (hTIGIT or mTIGIT)
T1 construct: extracellular domain; Used captured on streptavidin in ELISA and as analyte in SPR (extracellular domain); also called hTIGIT-ECD; hTIGIT-ECD-Biotin; not shown: expressed as a biotinylated recombinant fusion protein
T1 sequence (looked up): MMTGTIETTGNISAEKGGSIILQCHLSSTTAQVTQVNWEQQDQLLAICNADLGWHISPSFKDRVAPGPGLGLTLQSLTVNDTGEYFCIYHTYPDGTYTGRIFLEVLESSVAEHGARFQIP

[2] = target: T2, extracellular domain (ECD) of mouse TIGIT (mouse, UniProt P86176 29-148, biotinylated (site not stated)); assay: as above
T2 construct: extracellular domain; Used captured on streptavidin in ELISA and as analyte in SPR (extracellular domain); also called mTIGIT-ECD; mTIGIT-ECD-Biotin; not shown: expressed as a biotinylated recombinant fusion protein
T2 sequence (looked up): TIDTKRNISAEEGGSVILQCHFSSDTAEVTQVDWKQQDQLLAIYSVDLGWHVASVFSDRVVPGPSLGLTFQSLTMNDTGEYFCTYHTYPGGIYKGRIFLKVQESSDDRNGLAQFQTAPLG

[3] = target: T3, full-length human TIGIT expressed on cells (human, UniProt Q495A1 22-244); assay: FACS on CHO cells transiently expressing full-length hTIGIT, hIgG1 format
T3 construct: whole, on cells; also called CHO-hTIGIT; YTS-hTIGIT
T3 sequence (looked up): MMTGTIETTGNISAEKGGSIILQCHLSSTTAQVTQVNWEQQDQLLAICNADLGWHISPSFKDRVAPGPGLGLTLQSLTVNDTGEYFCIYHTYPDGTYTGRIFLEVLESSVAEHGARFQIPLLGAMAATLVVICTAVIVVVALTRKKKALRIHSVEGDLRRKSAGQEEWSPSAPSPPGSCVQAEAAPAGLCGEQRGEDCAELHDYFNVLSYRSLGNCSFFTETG
Description: (§1) For epitope mapping, chimeras of human TIGIT IgV domain and N-terminal IgV domain D1 of hCD155 were constructed by replacing residues in the extracellular regions of hTIGIT with the corresponding residues from hCD155 D 1. These chimera and variants were expressed by transient transfection of CHO or 293T cells, their cell surface expression levels were assessed by using a mAb GC33 recognizing the N-terminal tag fused to each of the chimera and variant or hCD155-hFc (4). The binding of testing Abs in human IgG1 (hIgG1) format or hCD155-hFc to these transfectants were detected by using goat anti-human IgG-FITC antibody (Thermo Fisher Scientific). The cells were then analyzed with FACS machine (BD Accuri™ C6).
By transfecting CHO cells with these hTIGIT/hCD155 chimeras or hTIGIT variants, and by subsequently analyzing T4, CS19ME3-23, and CS19ME3-30-N Abs binding to these CHO transfectant cells by FACS, it was identified that the FG Loop in the extracellular IgV domain of hTIGIT is critical for these Abs′ binding (FIG. 12B). […] Thus, by binding to the FG Loop, these three Abs block the binding of TIGIT to its ligand CD155. Due to the high amino acid sequence homology in this loop between hTIGIT and mTIGIT, these three Abs are able to cross-react with both of them.

[4] = target: T4, hTIGIT variant S78A (full length, on 293T cells) (human, UniProt Q495A1 22-244); assay: FACS on 293T cells transiently expressing the variant
T4 construct: whole, on cells
T4 sequence (looked up): T3 sequence (looked up) with S57A
Description: as §1
(§2) To investigate the role of these residues in the binding of anti-TIGIT antibodies of the present disclosure to hTIGIT, three hTIGIT variants each having a single point mutation selected from S78A, […], and K82A were generated. By transfecting 293T cells with these hTIGIT variants and by subsequently analyzing CS19ME3-30-N Abs binding to these 293T transfectant cells by FACS, it was identified that none of the three residues in the extracellular IgV domain of hTIGIT is critical for these Abs′ binding (FIG. 12C).

[5] = target: T5, hTIGIT variant S80A (full length, on 293T cells) (human, UniProt Q495A1 22-244); assay: as above
T5 construct: whole, on cells; also called 580A [sic]
T5 sequence (looked up): T3 sequence (looked up) with S59A
Description: as §1, §2

[6] = target: T6, hTIGIT variant K82A (full length, on 293T cells) (human, UniProt Q495A1 22-244); assay: as above
T6 construct: whole, on cells
T6 sequence (looked up): T3 sequence (looked up) with K61A
Description: as §1, §2

[7] = target: T1, extracellular domain (ECD) of human …; assay: SPR (Biacore T200), multi-cycle kinetics
[8] = target: T2, extracellular domain (ECD) of mouse …; assay: SPR (Biacore T200), multi-cycle kinetics

binding result [1]: binds
binding result [2]: binds
binding result [3]: binds
B1: CS19ME3-23 (antibody, human IgG1, V domains shown)
VH: EVQLLESGGGLVQPGGSLRLSCAASGFTFSSYAMHWVRQAPGKGLEWVAVISYDGSNKYYADSVKGRFTISRDNSKNTLYLQMNSLRAEDTAVYYCATLEGGGRYYDFWSADYWGQGTLVTVSS
VL: QSALTQPRSVSGSPGQSVTISCTGTSSDVGGYNFVSWYQQHPGKAPKLLIYAVSKRPSGVPDRFSGSKSGNTASLTISGLQAEDEADYYCSSYSSESTRVVFGGGTKLTVL
notes: tested as human IgG1 (hIgG1); also called CS19ME3-23 Ab

binding result [4]: binds
binding result [5]: binds
binding result [6]: binds
binding result [1]: binds
binding result [2]: binds
binding result [3]: binds
B2: CS19ME3-30-N (antibody, human IgG1, V domains shown)
VH: B1 VH with E1Q, L5V, L11V, G16R
VL: B1 VL with K55N
notes: tested as human IgG1 (hIgG1); also called CS19ME3-30-N Ab

binding result [7]: binds
binding result [8]: binds
B3: T4M (antibody, V domains shown)
VH: QVQLQQWGAGLLKPSETLSLTCAVYGGSFNDYYWTWIRQAPGKGLEWIGEITHSGSADYNPSLKSRVTISVDTSKNQFSLKLRSVTAADTAVYYCARGLKLFRWKKTTVTTFPPYYYGMDVWGQGTTVTVSS
VL: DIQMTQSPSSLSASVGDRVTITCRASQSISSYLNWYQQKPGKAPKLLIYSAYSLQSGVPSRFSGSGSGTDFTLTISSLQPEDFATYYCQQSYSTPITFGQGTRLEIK
notes: T4 Vk with S50 and Y52 incorporated; IgG format captured by anti-hFc in SPR; also called T4M Ab
